In IntAct's records for PubMed 16418270:

B1: Ribonuclease P protein component 2 (Pyrococcus furiosus), Q8U151 (parent)
chain: MSERPKTLPPTLRDKKRYIAFKVISENQFNKDEIKEAIWNACLRTLGELGTAKAKPWLIKFDETTQTGIIRCDRNHVYDVIFSLTLVSDINGNKAIIKVLGVSGTIKRLKRKFLSQFGWR
partner: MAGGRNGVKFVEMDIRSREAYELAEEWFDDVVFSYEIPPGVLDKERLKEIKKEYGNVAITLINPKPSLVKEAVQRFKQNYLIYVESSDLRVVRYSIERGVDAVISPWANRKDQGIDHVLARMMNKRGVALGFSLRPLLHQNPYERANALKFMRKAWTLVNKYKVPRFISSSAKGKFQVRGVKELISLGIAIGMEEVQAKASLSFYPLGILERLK

Variants of: B1
Conditions: with rnp3_pyrfu rnp3, Q8TZS0

| effect of a mutation on the interaction | Variant |
| --- | --- |
| decreasing interaction | C72S |
